Measurements: the supplement of paper PMC9233669
This sample holds only a part of the variants without activity.

Legend:
biotinyl-Trp-oxazolone = assay: self-aminoacylation, catalytic enhancement (BWO) (fold over background); higher = more active; k-Seq, kA / k0A0; sequences stand for … in GGGAAUGGAUCCACAUCUACGAAUUC…UUCACUGCAGACUUGACGAAGCUG
Summary of the method: (§1)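 The uncatalyzed rate is the low-activity peak of a bimodal Gaussian fit, and catalytic enhancement is median kA divided by it. The kA values came from pseudo-first-order fits, with 1000 bootstraps, of per-sequence fraction reacted measured by streptavidin capture, triplicate qPCR and Illumina sequencing. Mutagenized RNA pools with a 21-nt variable region (0.43 μM) were reacted with each biotinyl-aminoacyl-oxazolone at 2–1250 μM in 50 μL HEPES/NaCl/KCl/MgCl2/CaCl2 buffer with 5% acetonitrile, pH 6.9–7.0, for 90 minutes at room temperature.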

biotinyl-Val-oxazolone = assay: self-aminoacylation, catalytic enhancement (BVO) (fold over background); higher = more active; k-Seq, kA / k0A0; sequences stand for … in GGGAAUGGAUCCACAUCUACGAAUUC…UUCACUGCAGACUUGACGAAGCUG
Summary of the method: as §1

biotinyl-Phe-oxazolone = assay: self-aminoacylation, catalytic enhancement (BFO) (fold over background); higher = more active; k-Seq, kA / k0A0; sequences stand for … in GGGAAUGGAUCCACAUCUACGAAUUC…UUCACUGCAGACUUGACGAAGCUG
Summary of the method: as §1

biotinyl-Leu-oxazolone = assay: self-aminoacylation, catalytic enhancement (BLO) (fold over background); higher = more active; k-Seq, kA / k0A0; sequences stand for … in GGGAAUGGAUCCACAUCUACGAAUUC…UUCACUGCAGACUUGACGAAGCUG
Summary of the method: as §1

biotinyl-Ile-oxazolone = assay: self-aminoacylation, catalytic enhancement (BIO) (fold over background); higher = more active; k-Seq, kA / k0A0; sequences stand for … in GGGAAUGGAUCCACAUCUACGAAUUC…UUCACUGCAGACUUGACGAAGCUG
Summary of the method: as §1

biotinyl-Met-oxazolone = assay: self-aminoacylation, catalytic enhancement (BMO) (fold over background); higher = more active; k-Seq, kA / k0A0; sequences stand for … in GGGAAUGGAUCCACAUCUACGAAUUC…UUCACUGCAGACUUGACGAAGCUG
Summary of the method: as §1

Sequence | self-aminoacylation (biotinyl-Trp-oxazolone) | self-aminoacylation (biotinyl-Val-oxazolone) | self-aminoacylation (biotinyl-Phe-oxazolone) | self-aminoacylation (biotinyl-Leu-oxazolone) | self-aminoacylation (biotinyl-Ile-oxazolone) | self-aminoacylation (biotinyl-Met-oxazolone)
AAGUUUGCAAAUAGUCUCAAG [Fam3.1 aminoacylation ribozyme variant] | 0.81 | 0.772 | 0.972 | 0.747 | 0.987 | 1.12
CUACUUAAACCAAUCGGUCUG [Fam1A.1 aminoacylation ribozyme variant] | 0.473 | 0.67 | 0.538 | 0.594 | 0.88 | 0.693
AAAUUUGCUUAUAGUCGCAAG [Fam3.1 aminoacylation ribozyme variant] | 2.14 | 1.59 | 2.37 | 1.93 | 2.26 | 1.91
AUACUUCAAACAAUCGGUGUG [Fam1A.1 aminoacylation ribozyme variant] | 2.68 | 0.94 | 3.81 | 1.25 | 1.05 | 1.22
CUACUUCGAACAAUCGGUGUG [Fam1A.1 aminoacylation ribozyme variant] | 1.25 | 0.999 | 0.861 | 1.26 | 1.03 | 1.13
AAGUUCGCUAAUAGUGGCAAG [Fam3.1 aminoacylation ribozyme variant] | 0.444 | 0.56 | 0.484 | 0.8 | 0.737 | 0.601
CUACUUCAGACCAUCGGUCUG [Fam1A.1 aminoacylation ribozyme variant] | 0.856 | 1.07 | 1.06 | 1.14 | 1.1 | 1.25
AUUCACCUAGUACAUCGGGUG [Fam2.2 aminoacylation ribozyme variant] | 2.21 | 1.65 | 10.4 | 2.71 | 1.55 | 2.21
GUUACCCUGGGCAUCGAGUGA [Fam2.1 aminoacylation ribozyme variant] | 10.1 | 4.16 | 68.6 | 8.7 | 4.53 | 8.99
AUUAUCCUAGGUCAUCGGGUG [Fam2.2 aminoacylation ribozyme variant] | 9.09 | 5.98 | 54.6 | 14.5 | 6.74 | 9.84
CUAGUUCAAACAAUCCGUCUG [Fam1A.1 aminoacylation ribozyme variant] | 0.713 | 0.895 | 0.796 | 0.89 | 0.861 | 0.885
AUUACCCUGGUCAACGCGUGA [Fam2.1 aminoacylation ribozyme variant] | 12.3 | 6.15 | 72.1 | 12.5 | 4.65 | 10.8
AAGUUUGCUGAUAGUCGCAAU [Fam3.1 aminoacylation ribozyme variant] | 1.87 | 1.33 | 1.68 | 1.09 | 1.71 | 1.22
AUUCUGCUAGGUCAUCGGGUG [Fam2.2 aminoacylation ribozyme variant] | 9.84 | 6.13 | 72.1 | 12 | 5.96 | 9.46
CAACUUCAAACAAUCGGUUUG [Fam1A.1 aminoacylation ribozyme variant] | 44 | 1.62 | 87.8 | 2.6 | 1.51 | 1.71
CCACACUCCCAGCAAUCGGUC [Fam1B.1 aminoacylation ribozyme variant] | 1.02 | 1.59 | 0.634 | 1.6 | 1.65 | 1.41
AAGUUUGGGAAUAGUCGCAAG [Fam3.1 aminoacylation ribozyme variant] | 1.69 | 1.25 | 1.95 | 1.05 | 1.32 | 0.876
AAGUCUGCUAAUAGACGCAAG [Fam3.1 aminoacylation ribozyme variant] | 0.653 | 0.715 | 1.01 | 0.771 | 0.692 | 0.669
AUGCACCUAGGUCCUCGGGUG [Fam2.2 aminoacylation ribozyme variant] | 5.64 | 3.19 | 27.2 | 5.43 | 3.44 | 3.7
CCAAACUUCAAGCCAUCGGUC [Fam1B.1 aminoacylation ribozyme variant] | 1.01 | 1.18 | 1.07 | 1.03 | 1.15 | 1.28
UAGUUUUCUAAUAGUCGCAAG [Fam3.1 aminoacylation ribozyme variant] | 1.59 | 1.23 | 1.6 | 1.3 | 1.52 | 1.25
CAGUUUGCUAUUAGUCGCAAG [Fam3.1 aminoacylation ribozyme variant] | 1.29 | 1.22 | 1.88 | 1.5 | 1.24 | 1.25
AUGCACCUAGGUCAUCGGUUG [Fam2.2 aminoacylation ribozyme variant] | 1.48 | 1.24 | 5.04 | 1.28 | 1.42 | 1.26
AUUACCCUGGUCAGCGCGUGA [Fam2.1 aminoacylation ribozyme variant] | 6.87 | 3.95 | 35.3 | 6.5 | 3.45 | 5.84
AUUCGCCUAGGUCUUCGGGUG [Fam2.2 aminoacylation ribozyme variant] | 9 | 5.82 | 55.9 | 8.57 | 5.33 | 7.49
AAGUUUGCUAAUAGGCGGAAG [Fam3.1 aminoacylation ribozyme variant] | 0.922 | 0.89 | 0.916 | 0.675 | 0.806 | 0.721

Sequence | self-aminoacylation (biotinyl-Trp-oxazolone) | self-aminoacylation (biotinyl-Val-oxazolone) | self-aminoacylation (biotinyl-Phe-oxazolone) | self-aminoacylation (biotinyl-Leu-oxazolone) | self-aminoacylation (biotinyl-Ile-oxazolone) | self-aminoacylation (biotinyl-Met-oxazolone)
CCACACUUCCAGCAAUCGGUG [Fam1B.1 aminoacylation ribozyme variant] | 3.13 | 3.05 | 18.9 | 4.82 | 2.74 | 3.83
AAGUUUGCUAAUAGACGCUAG [Fam3.1 aminoacylation ribozyme variant] | 0.501 | 0.654 | 0.777 | 0.495 | 0.547 | 0.754
AUUACCCUGAUCAUCUAGUGA [Fam2.1 aminoacylation ribozyme variant] | 15.6 | 6.47 | 56.9 | 11.2 | 5.67 | 13.5
AAGUUUGCUAAUAGCCACAAG [Fam3.1 aminoacylation ribozyme variant] | 0.834 | 0.827 | 1.59 | 0.833 | 0.821 | 0.55
CAACUUCAUACAAUCGGUCUG [Fam1A.1 aminoacylation ribozyme variant] | 0.771 | 0.962 | 1.65 | 1.04 | 1.06 | 0.861
ACUAACCUAGGUCAUCGGGUG [Fam2.2 aminoacylation ribozyme variant] | 6.91 | 3.36 | 40.7 | 8.64 | 5.7 | 6.8
CCACACUUUAAGCAAUAGGUC [Fam1B.1 aminoacylation ribozyme variant] | 0.444 | 0.683 | 1.07 | 0.578 | 0.619 | 0.592
AGGUUUACUAAUAGUCGCAAG [Fam3.1 aminoacylation ribozyme variant] | 1.81 | 1.47 | 4.12 | 1.49 | 1.58 | 1.84
AACUUUGGUAAUAGUCGCAAG [Fam3.1 aminoacylation ribozyme variant] | 2.24 | 2.15 | 3.84 | 3.08 | 2.58 | 2.22
CCACACUCCAAGCAAUCGCUC [Fam1B.1 aminoacylation ribozyme variant] | 2.47 | 2.56 | 0.753 | 1.38 | 1.92 | 1.29
AUUCACCUAUGUCUUCGGGUG [Fam2.2 aminoacylation ribozyme variant] | 2.35 | 2.02 | 14.7 | 2.67 | 2.11 | 2.42
AGUCACCUAGGUCAUCGAGUG [Fam2.2 aminoacylation ribozyme variant] | 4.19 | 3.16 | 6.67 | 5.93 | 3.67 | 4.24
AAGUUCACUAAUAGUCGCAAG [Fam3.1 aminoacylation ribozyme variant] | 2.23 | 1.86 | 2.72 | 1.8 | 1.96 | 1.37
AUUACCCUGGUCAUCGAUAGA [Fam2.1 aminoacylation ribozyme variant] | 1.23 | 0.77 | 0.5 | 0.537 | 0.721 | 0.638
AUUCACCUCGGUUAUCGGGUG [Fam2.2 aminoacylation ribozyme variant] | 7.82 | 4.58 | 41.1 | 7.66 | 4.48 | 5.58
AUUACCCUCGUCAUCGACUGA [Fam2.1 aminoacylation ribozyme variant] | 0.555 | 0.877 | 0.811 | 0.644 | 0.735 | 0.868
CCACACUUCAAGCUUUCGGUC [Fam1B.1 aminoacylation ribozyme variant] | 1.1 | 1.64 | 0.741 | 1.3 | 1.53 | 1.17
AUUACCCUGGUCAUCGCGUGC [Fam2.1 aminoacylation ribozyme variant] | 4.47 | 2.75 | 16.8 | 4.64 | 2.81 | 3.35
CUACCUAAAACAAUCGGUCUG [Fam1A.1 aminoacylation ribozyme variant] | 0.697 | 0.991 | 0.787 | 0.624 | 0.883 | 0.761
AGUACCCUGUUCAUCGAGUGA [Fam2.1 aminoacylation ribozyme variant] | 4.52 | 2.45 | 17.4 | 4.46 | 2.36 | 4.14
AUUCACCUAGGUCAUAGCGUG [Fam2.2 aminoacylation ribozyme variant] | 3.55 | 2.15 | 17.1 | 4.63 | 2.46 | 3.36
AUUACCCCGGUCCUCGAGUGA [Fam2.1 aminoacylation ribozyme variant] | 4.82 | 2.21 | 25.5 | 3.97 | 2.29 | 3.32
CUACGUCACACAAUCGGUCUG [Fam1A.1 aminoacylation ribozyme variant] | 0.986 | 0.962 | 0.794 | 0.98 | 0.999 | 0.943
AAUACCCUGGUAAUCGAGUGA [Fam2.1 aminoacylation ribozyme variant] | 10.3 | 3.37 | 38.5 | 8.53 | 3.96 | 7.38
CUUACCCUGGUCAUCGAGUUA [Fam2.1 aminoacylation ribozyme variant] | 2.08 | 1.73 | 4.79 | 2.36 | 1.53 | 2.5
